Reference: article PMC4374980

Biological target: cysteine-free green-absorbing Proteorhodopsin
Assay: cross-linking

stoichiometry N: 6
Substance: cysteine-free green-absorbing Proteorhodopsin (natural protein)
